Measured values: article doi:10.1101/2025.08.19.670962, “Structural basis for binding of RILPL1 to TMEM55B reveals a lysosomal platform for adaptor assembly through a conserved TBM motif” (bioRxiv, 2025)
Values joined by “and” are separate entries in the source; they are usually repeats but may differ in a detail not shown here. Equal entries are not always repeated.

T1: His-tagged PH domain of OCRL (1-129) (UniProt Q01968 1-129)
T1 construct: OCRL (OCRL1), PH domain, residues 1-129; also called OCRL PH domain; source: E. coli, purified (protocol similar to that of TMEM55B, no ZnCl2 added)
T1 sequence (looked up): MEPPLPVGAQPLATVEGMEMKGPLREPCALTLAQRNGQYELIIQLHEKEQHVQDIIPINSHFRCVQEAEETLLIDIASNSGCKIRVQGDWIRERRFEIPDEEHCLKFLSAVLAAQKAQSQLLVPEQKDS

B1: OCRL-PH domain (as used in ITC) (domain or fragment, UniProt Q01968 1-119, looked up)
chain: MEPPLPVGAQPLATVEGMEMKGPLREPCALTLAQRNGQYELIIQLHEKEQHVQDIIPINSHFRCVQEAEETLLIDIASNSGCKIRVQGDWIRERRFEIPDEEHCLKFLSAVLAAQKAQS
notes: OCRL, PH domain; residues 1-129 are stated for the His-tagged variant of the pull-down; Probably the construct of m14; source: E. coli, purified (protocol similar to that of TMEM55B, no ZnCl2 added)
B2: WDR81 657-668 (peptide)
peptide: DDLEQATEALDS
notes: WDR81, residues 657-668; source: synthetic peptide (Genscript)
B3: JIP3 889-903 (peptide)
peptide: SQSTEEATEATEVPD
notes: JIP3, residues 889-903; source: synthetic peptide (Genscript)
B4: TMEM55B (80-166), untagged, wild type (domain or fragment)
chain: not shown
notes: N-terminal peptide left from the pET15b expression vector; TMEM55B, residues 80-166; numbers count on: UniProt Q86T03 isoform 2 (284 residues); also called WT TMEM55B region 80-166; source: E. coli BL21(DE3), purified (Ni-NTA, thrombin, second Ni-NTA, gel filtration)
B5: His-WDR81 657-668 (peptide)
peptide: GSDDLEQATEALDS
notes: linker after the His6 tag; WDR81, residues 657-668; also called His-tagged WDR81 peptide; source: synthetic peptide (Genscript); not shown: His6, N-terminal, kept
B6: His-JIP4 887-897 (peptide)
peptide: GSTAEEATEATEG
notes: linker after the His6 tag; JIP4, residues 887-897; also called His-tagged JIP4 peptide; source: synthetic peptide (Genscript); not shown: His6, N-terminal, kept
B7: RILPL1 391-403 peptide (peptide)
peptide: GYTEQGQEALQHL
notes: also called RL1pep; RILPL1 peptide; source: synthetic peptide (Genscript)
B8: His-RILPL1 391-403 (peptide)
peptide: GSGYTEQGQEALQHL
notes: linker after the His6 tag; also called His-tagged RILPL1 peptide; source: synthetic peptide (Genscript); not shown: His6, N-terminal, kept
B9: JIP4 887-897 (peptide)
peptide: TAEEATEATEG
notes: JIP4, residues 887-897; source: synthetic peptide (Genscript)

Key:
Settings in all cases: both partners purified
[1] = biological target: T2, TMEM55B (80-160) (UniProt Q86T03-2 80-160); assay: ITC; peptide or OCRL PH domain injected into the cell with TMEM55B_(80-160); ITC200; Tris-HCl, 150mM NaCl, 1mM DTT, pH 7.5; single binding mode
T2 construct: TMEM55B, residues 80-160; numbers count on: UniProt Q86T03 isoform 2; source: E. coli, purified

[2] = biological target: T1, His-tagged PH domain of OCRL (1-129); assay: pull-down; 10μM His-tagged peptide or His-tagged OCRL PH domain as bait on Ni2+-agarose, 10μM untagged TMEM55B as prey; 20 mM Tris pH 8.0, 300 mM NaCl, 20mM imidazole, 10 mM β-mercaptoethanol; Coomassie
[3] = biological target: B4; assay: as above
[4] = biological target: B4; assay: SEC-MALS; Superdex75 10/300 GL, 1-1.5 mg/mL, TMEM55B_(80-166) alone or with RILPL1 peptide

T2 sequence (Q86T03 73-153): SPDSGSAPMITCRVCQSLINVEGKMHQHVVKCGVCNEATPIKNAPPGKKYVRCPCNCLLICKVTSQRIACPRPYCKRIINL

dH [1]	stoichiometry N [1]	Kd [1]	Binder	further results
-5.3 kcal/mol and -5.9 kcal/mol and -6.7 kcal/mol	0.69 and 0.86 and 0.68		B1	
-9 kcal/mol and -9.1 kcal/mol and -8.7 kcal/mol	0.94 and 1.1	20 nM and 33 nM and 12 nM	B2	
-8.2 kcal/mol and -9.3 kcal/mol	1.2 and 0.99 and 1.1	127 nM and 126 nM and 103 nM	B3	
			B4	binding result [2]: binds
			B5	binding result [3]: binds
			B6	binding result [3]: binds
			B7	stoichiometry N [4]: 1
-11.4 kcal/mol and -12.1 kcal/mol and -13.6 kcal/mol	0.87 and 0.95	680 nM and 590 nM and 1000 nM	B8	
-8.9 kcal/mol and -9.7 kcal/mol and -8.7 kcal/mol	1 and 0.91 and 0.78	2900 nM and 2200 nM and 3100 nM	B9	
